The series deals with the molecule itself. In words: native gel or EMSA. In general terms: In EMSA bound probe runs differently from free probe, usually more slowly.

B1: NSUN2-F1 (amino acid 1–767), recombinant NSUN2 protein (enzyme, human, UniProt Q08J23-1 1-767, looked up)
chain: MGRRSRGRRLQQQQRPEDAEDGAEGGGKRGEAGWEGGYPEIVKENKLFEHYYQELKIVPEGEWGQFMDALREPLPATLRITGYKSHAKEILHCLKNKYFKELEDLEVDGQKVEVPQPLSWYPEELAWHTNLSRKILRKSPHLEKFHQFLVSETESGNISRQEAVSMIPPLLLNVRPHHKILDMCAAPGSKTTQLIEMLHADMNVPFPEGFVIANDVDNKRCYLLVHQAKRLSSPCIMVVNHDASSIPRLQIDVDGRKEILFYDRILCDVPCSGDGTMRKNIDVWKKWTTLNSLQLHGLQLRIATRGAEQLAEGGRMVYSTCSLNPIEDEAVIASLLEKSEGALELADVSNELPGLKWMPGITQWKVMTKDGQWFTDWDAVPHSRHTQIRPTMFPPKDPEKLQAMHLERCLRILPHHQNTGGFFVAVLVKKSSMPWNKRQPKLQGKSAETRESTQLSPADLTEGKPTDPSKLESPSFTGTGDTEIAHATEDLENNGSKKDGVCGPPPSKKMKLFGFKEDPFVFIPEDDPLFPPIEKFYALDPSFPRMNLLTRTTEGKKRQLYMVSKELRNVLLNNSEKMKVINTGIKVWCRNNSGEEFDCAFRLAQEGIYTLYPFINSRIITVSMEDVKILLTQENPFFRKLSSETYSQAKDLAKGSIVLKYEPDSANPDALQCPIVLCGWRGKASIRTFVPKNERLHYLRMMGLEVLGEKKKEGVILTNESAASTGQPDNDVTEGQRAGEPNSPDAEEANSPDVTAGCDPAGVHPPR
Turning to B1, the binding result is reported as “binds”.

Source of the values: paper PMC10726430 (Cell metabolism, 2023).
